Experimental data taken from PMC10154249, “Unique progerin C-terminal peptide ameliorates Hutchinson–Gilford progeria syndrome phenotype by rescuing BUBR1” (Nature Aging, 2023).

Target: T1, Flag-BUBR1 (human, UniProt O60566 1-1050)
T1 construct: also called Flag beads-BUBR1; source: eluted with 3×Flag peptide for MST, left on Flag beads for the pull-down
Experiment: pull-down; 10 μg purified His-UPCP incubated with Flag beads, Flag beads-BUBR1 or Flag beads-PTBP1 for 16 h at 4 °C; beads washed three times with PBS
Settings: both partners purified

T1 sequence (O60566 whole entry): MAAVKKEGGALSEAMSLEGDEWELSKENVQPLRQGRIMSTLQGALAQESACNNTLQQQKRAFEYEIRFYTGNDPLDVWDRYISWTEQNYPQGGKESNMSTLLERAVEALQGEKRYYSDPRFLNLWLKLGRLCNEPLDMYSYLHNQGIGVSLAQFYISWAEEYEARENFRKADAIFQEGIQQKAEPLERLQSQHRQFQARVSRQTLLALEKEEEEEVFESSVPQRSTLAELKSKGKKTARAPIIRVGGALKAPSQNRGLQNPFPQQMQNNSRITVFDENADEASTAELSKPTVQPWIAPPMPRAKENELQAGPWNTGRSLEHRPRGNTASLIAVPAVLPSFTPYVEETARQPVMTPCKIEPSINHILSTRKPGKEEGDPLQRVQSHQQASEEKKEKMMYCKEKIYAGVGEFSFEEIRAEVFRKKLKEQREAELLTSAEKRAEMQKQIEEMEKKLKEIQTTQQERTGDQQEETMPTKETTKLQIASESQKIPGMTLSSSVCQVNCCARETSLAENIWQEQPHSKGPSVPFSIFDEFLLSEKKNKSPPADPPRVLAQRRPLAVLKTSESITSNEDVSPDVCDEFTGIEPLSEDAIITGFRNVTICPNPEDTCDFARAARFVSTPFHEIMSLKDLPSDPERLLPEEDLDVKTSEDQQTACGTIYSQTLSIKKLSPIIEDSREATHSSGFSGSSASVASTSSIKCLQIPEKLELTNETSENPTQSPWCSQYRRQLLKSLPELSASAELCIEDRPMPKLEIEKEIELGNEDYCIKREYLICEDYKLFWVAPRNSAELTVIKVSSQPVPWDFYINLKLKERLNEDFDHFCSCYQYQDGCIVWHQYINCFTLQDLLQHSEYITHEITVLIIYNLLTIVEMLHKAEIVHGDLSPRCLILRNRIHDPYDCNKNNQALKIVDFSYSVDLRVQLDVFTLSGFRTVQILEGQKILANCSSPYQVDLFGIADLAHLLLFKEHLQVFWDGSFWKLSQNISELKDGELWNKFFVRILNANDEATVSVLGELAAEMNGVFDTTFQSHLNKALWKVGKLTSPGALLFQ

## YGRKKRRQRRRYNLRSRTVLCGTCGQPADKASASGSGAQSPQNCSIM (also called His-tagged UPCP) [His-UPCP]
  binding result: binds
